# Molecular target: PRC2:EZH1 (EZH1, EED, SUZ12, RBAP48, AEBP2 and JARID2) (UniProt Q92800)
# Test: SEC-MALS; TSKgel G4000SWxl, 20 mM Tris-HCl pH 7.5, 300 mM NaCl, 1 mM DTT, 0.5 ml/min; complexes at 1.25 mg/ml, 30 μl injected
substance,measurement,value
"PRC2:EZH1 (EZH1, EED, SUZ12, RBAP48, AEBP2 and JARID2) (from UniProt Q92800 1-747; Q15022 1-739; O75530 1-441; Q09028 1-425; Q6ZN18 209-503; Q92833 1-1246) (complex)",stoichiometry N,2

# From paper PMC7846606
